# Reference: paper PMC5364394
# Biological target: FLAG-SF2/ASF purified (human, UniProt Q07955 1-248)
# Test: EMSA
# Settings: protein: recombinant; tags: FLAG; label: IRDye-800
# FLAG-SF2/ASF purified, sequence (Q07955 whole entry): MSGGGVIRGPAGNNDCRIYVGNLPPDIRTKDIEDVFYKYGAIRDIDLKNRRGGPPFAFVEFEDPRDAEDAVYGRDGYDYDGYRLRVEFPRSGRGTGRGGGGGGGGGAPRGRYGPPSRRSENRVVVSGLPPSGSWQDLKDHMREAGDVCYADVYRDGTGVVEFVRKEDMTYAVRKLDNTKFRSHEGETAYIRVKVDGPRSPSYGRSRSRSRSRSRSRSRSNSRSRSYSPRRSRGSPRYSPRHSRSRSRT
binder,measurement,value
"GACAUACUGACAAGGAUGUC (ssRNA) [H7N9-NS-529-548 (NEP-ESE, 540A, WT)]",binding result,binds
